This is an account of results in PMC3072023 (Biochemistry, 2010).

This data set concerns the molecule itself. In words: crystal structure.

B1: GluA2 S1S2 flop (ligand-binding domain of rat GluA2o) (domain or fragment)
chain: GANKTVVVTTILESPYVMMKKNHEMLEGNERYEGYCVDLAAEIAKHCGFKYKLTIVGDGKYGARDADTKIWNGMVGELVYGKADIAIAPLTITLVREEVIDFSKPFMSLGISIMIKKGTPIESAEDLSKQTEIAYGTLDSGSTKEFFRRSKIAVFDKMWTYMRSAEPSVFVRTTAEGVARVRKSKGKYAYLLESTMNEYIEQRKPCDTMKVGGNLDSKGYGIATPKGSSLGNAVNLAVLKLNEQGLLDKLKNKWWYDKGECGS
Turning to B1, the binding result is on record as “binds”.
